Results as given in the supplement of paper PMC5998384.

Key:
[1] = system: HeLa Kyoto; test: thermal stability score vs G1/S (z-score of summed log2 fold changes over temperatures); higher = more thermally stable than in G1/S
[2] = system: HeLa Kyoto; test: solubility in G1/S (NP-40 vs SDS abundance) (log2 ratio); higher = more soluble; details: cell cycle stage: G1/S
[3] = system: HeLa Kyoto; test: melting temperature (median over replicates), in situ; higher = more thermally stable
[4] = system: HeLa Kyoto; test: solubility change mitosis vs G1/S (difference of NP-40 vs SDS log2 ratios) (log2 ratio difference); higher = more soluble in mitosis
[5] = cell cycle stage: early G1 (4.5 h after nocodazole release)
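For melting temperature (median over replicates), in situ in this document: HeLa Kyoto cells synchronized by double thymidine or nocodazole block, proteins quantified by TMT10plex mass spectrometry, three independent biological replicates.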
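For solubility change mitosis vs G1/S (difference of NP-40 vs SDS log2 ratios) in this document: synchronized HeLa Kyoto cells (double thymidine block for G1/S, nocodazole release for mitosis), protein amounts in NP-40 versus SDS lysates quantified by mass spectrometry, three biological replicates.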
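For solubility in G1/S (NP-40 vs SDS abundance) in this document: HeLa Kyoto cells arrested at G1/S by double thymidine block, proteins quantified by TMT10plex mass spectrometry in mild NP-40 versus SDS extracts, three biological replicates.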
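For thermal stability score vs G1/S (z-score of summed log2 fold changes over temperatures) in this document: synchronized HeLa Kyoto cells, proteins quantified by TMT10plex mass spectrometry, three biological replicates, mitosis taken 0.5 h after nocodazole release, G1/S directly after double thymidine block.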

| Substance | thermal stability score [1, 5] | thermal stability score ([1]; cell cycle stage: mitosis) | solubility in G1/S (log2) [2] | melting temperature ([3]; cell cycle stage: G1/S) | melting temperature ([3]; cell cycle stage: mitosis) | solubility change mitosis (log2) [4] |
| --- | --- | --- | --- | --- | --- | --- |
| MAMAEGERTECAEPPRDEPPADGALKRAEELKTQANDYFKAKDYENAIKFYSQAIELNPSNAIYYGNRSLAYLRTECYGYALGDATRAIELDKKYIKGYYRRAASNMALGKFRAALRDYETVVKVKPHDKDAKMKYQECNKIVKQKAFERAIAGDEHKRSVVDSLDIESMTIEDEYSGPKLEDGKVTISFMKELMQWYKDQKKLHRKCAYQILVQVKEVLSKLSTLVETTLKETEKITVCGDTHGQFYDLLNIFELNGLPSETNPYIFNGDFVDRGSFSVEVILTLFGFKLLYPDHFHLLRGNHETDNMNQIYGFEGEVKAKYTAQMYELFSEVFEWLPLAQCINGKVLIMHGGLFSEDGVTLDDIRKIERNRQPPDSGPMCDLLWSDPQPQNGRSISKRGVSCQFGPDVTKAFLEENNLDYIIRSHEVKAEGYEVAHGGRCVTVFSAPNYCDQMGNKASYIHLQGSDLRPQFHQFTAVPHPNVKPMAYANTLLQLGMM [PPP5C] | -0.0521 | -1.42 | 0.0833 | 52.2 °C | 51.6 °C | -0.207 |
| MCQVGEDYGEPAPEEPPPAPRPSREQKCVKCKEAQPVVVIRAGDAFCRDCFKAFYVHKFRAMLGKNRLIFPGEKVLLAWSGGPSSSSMVWQVLEGLSQDSAKRLRFVAGVIFVDEGAACGQSLEERSKTLAEVKPILQATGFPWHVVALEEVFSLPPSVLWCSAQELVGSEGAYKAAVDSFLQQQHVLGAGGGPGPTQGEEQPPQPPLDPQNLARPPAPAQTEALSQLFCSVRTLTAKEELLQTLRTHLILHMARAHGYSKVMTGDSCTRLAIKLMTNLALGRGAFLAWDTGFSDERHGDVVVVRPMRDHTLKEVAFYNRLFSVPSVFTPAVDTKAPEKASIHRLMEAFILRLQTQFPSTVSTVYRTSEKLVKGPRDGPAAGDSGPRCLLCMCALDVDAADSATAFGAQTSSRLSQMQSPIPLTETRTPPGPCCSPGVGWAQRCGQGACRREDPQACIEEQLCYSCRVNMKDLPSLDPLPPYILAEAQLRTQRAWGLQEIRDCLIEDSDDEAGQS [CTU2] | -0.721 | -0.101 | 0.28 | 53.4 °C | 52.8 °C | -0.166 |
| MLVHLFRVGIRGGPFPGRLLPPLRFQTFSAVRNTWRNGKTGQLHKAEGEYSDGYRSSSLLRAVAHLRSQLWAHLPRAPLAPRWSPSAWCWVGGALLGPMVLSKHPHLCLVALCEAEEAPPASSTPHVVGSRFNWKLFWQFLHPHLLVLGVAVVLALGAALVNVQIPLLLGQLVEVVAKYTRDHVGSFMTESQNLSTHLLILYGVQGLLTFGYLVLLSHVGERMAVDMRRALFSSLLRQDITFFDANKTGQLVSRLTTDVQEFKSSFKLVISQGLRSCTQVAGCLVSLSMLSTRLTLLLMVATPALMGVGTLMGSGLRKLSRQCQEQIARAMGVADEALGNVRTVRAFAMEQREEERYGAELEACRCRAEELGRGIALFQGLSNIAFNCMVLGTLFIGGSLVAGQQLTGGDLMSFLVASQTVQRSMANLSVLFGQVVRGLSAGARVFEYMALNPCIPLSGGCCVPKEQLRGSVTFQNVCFSYPCRPGFEVLKDFTLTLPPGKIVALVGQSGGGKTTVASLLERFYDPTAGVVMLDGRDLRTLDPSWLRGQVVGFISQEPVLFGTTIMENIRFGKLEASDEEVYTAAREANAHEFITSFPEGYNTVVGERGTTLSGGQKQRLAIARALIKQPTVLILDEATSALDAESERVVQEALDRASAGRTVLVIAHRLSTVRGAHCIVVMADGRVWEAGTHEELLKKGGLYAELIRRQALDAPRTAAPPPKKPEGPRSHQHKS [ABCB8] | 0.49 | -0.355 | -0.36 | 51.1 °C |  | 0.155 |
| MTSLTQRSSGLVQRRTEASRNAADKERAAGGGAGSSEDDAQSRRDEQDDDDKGDSKETRLTLMEEVLLLGLKDREGYTSFWNDCISSGLRGCMLIELALRGRLQLEACGMRRKSLLTRKVICKSDAPTGDVLLDEALKHVKETQPPETVQNWIELLSGETWNPLKLHYQLRNVRERLAKNLVEKGVLTTEKQNFLLFDMTTHPLTNNNIKQRLIKKVQEAVLDKWVNDPHRMDRRLLALIYLAHASDVLENAFAPLLDEQYDLATKRVRQLLDLDPEVECLKANTNEVLWAVVAAFTK [GOLPH3] | 0.551 | -0.641 | 0.434 | 51.9 °C | 51.5 °C | -0.137 |
| MEGSEPVAAHQGEEASCSSWGTGSTNKNLPIMSTASVEIDDALYSRQRYVLGDTAMQKMAKSHVFLSGMGGLGLEIAKNLVLAGIKAVTIHDTEKCQAWDLGTNFFLSEDDVVNKRNRAEAVLKHIAELNPYVHVTSSSVPFNETTDLSFLDKYQCVVLTEMKLPLQKKINDFCRSQCPPIKFISADVHGIWSRLFCDFGDEFEVLDTTGEEPKEIFISNITQANPGIVTCLENHPHKLETGQFLTFREINGMTGLNGSIQQITVISPFSFSIGDTTELEPYLHGGIAVQVKTPKTVFFESLERQLKHPKCLIVDFSNPEAPLEIHTAMLALDQFQEKYSRKPNVGCQQDSEELLKLATSISETLEEKPDVNADIVHWLSWTAQGFLSPLAAAVGGVASQEVLKAVTGKFSPLCQWLYLEAADIVESLGKPECEEFLPRGDRYDALRACIGDTLCQKLQNLNIFLVGCGAIGCEMLKNFALLGVGTSKEKGMITVTDPDLIEKSNLNRQFLFRPHHIQKPKSYTAADATLKINSQIKIDAHLNKVCPTTETIYNDEFYTKQDVIITALDNVEARRYVDSRCLANLRPLLDSGTMGTKGHTEVIVPHLTESYNSHRDPPEEEIPFCTLKSFPAAIEHTIQWARDKFESSFSHKPSLFNKFWQTYSSAEEVLQKIQSGHSLEGCFQVIKLLSRRPRNWSQCVELARLKFEKYFNHKALQLLHCFPLDIRLKDGSLFWQSPKRPPSPIKFDLNEPLHLSFLQNAAKLYATVYCIPFAEEDLSADALLNILSEVKIQEFKPSNKVVQTDETARKPDHVPISSEDERNAIFQLEKAILSNEATKSDLQMAVLSFEKDDDHNGHIDFITAASNLRAKMYSIEPADRFKTKRIAGKIIPAIATTTATVSGLVALEMIKVTGGYPFEAYKNCFLNLAIPIVVFTETTEVRKTKIRNGISFTIWDRWTVHGKEDFTLLDFINAVKEKYGIEPTMVVQGVKMLYVPVMPGHAKRLKLTMHKLVKPTTEKKYVDLTVSFAPDIDGDEDLPGPPVRYYFSHDTD [UBA6] | -0.786 | -0.409 | 0.00865 | 50.7 °C | 49.8 °C | -0.192 |
| MAAAVGRLLRASVARHVSAIPWGISATAALRPAACGRTSLTNLLCSGSSQAKLFSTSSSCHAPAVTQHAPYFKGTAVVNGEFKDLSLDDFKGKYLVLFFYPLDFTFVCPTEIVAFSDKANEFHDVNCEVVAVSVDSHFSHLAWINTPRKNGGLGHMNIALLSDLTKQISRDYGVLLEGSGLALRGLFIIDPNGVIKHLSVNDLPVGRSVEETLRLVKAFQYVETHGEVCPANWTPDSPTIKPSPAASKEYFQKVNQ [PRDX3] | 0.801 | -1.38 | 0.452 | 58.2 °C | 57.9 °C | -0.00401 |
| MFVARSIAADHKDLIHDVSFDFHGRRMATCSSDQSVKVWDKSESGDWHCTASWKTHSGSVWRVTWAHPEFGQVLASCSFDRTAAVWEEIVGESNDKLRGQSHWVKRTTLVDSRTSVTDVKFAPKHMGLMLATCSADGIVRIYEAPDVMNLSQWSLQHEISCKLSCSCISWNPSSSRAHSPMIAVGSDDSSPNAMAKVQIFEYNENTRKYAKAETLMTVTDPVHDIAFAPNLGRSFHILAIATKDVRIFTLKPVRKELTSSGGPTKFEIHIVAQFDNHNSQVWRVSWNITGTVLASSGDDGCVRLWKANYMDNWKCTGILKGNGSPVNGSSQQGTSNPSLGSTIPSLQNSLNGSSAGRKHS [SEH1L] | -3.19 | -4.18 | -0.79 | 54.8 °C | 51.6 °C | 0.295 |
| MESGFTSKDTYLSHFNPRDYLEKYYKFGSRHSAESQILKHLLKNLFKIFCLDGVKGDLLIDIGSGPTIYQLLSACESFKEIVVTDYSDQNLQELEKWLKKEPEAFDWSPVVTYVCDLEGNRVKGPEKEEKLRQAVKQVLKCDVTQSQPLGAVPLPPADCVLSTLCLDAACPDLPTYCRALRNLGSLLKPGGFLVIMDALKSSYYMIGEQKFSSLPLGREAVEAAVKEAGYTIEWFEVISQSYSSTMANNEGLFSLVARKLSRPL [NNMT] | 3.88 | 4.37 | 0.584 | 53.4 °C | 53.7 °C | -0.0166 |
| MSTAQSLKSVDYEVFGRVQGVCFRMYTEDEARKIGVVGWVKNTSKGTVTGQVQGPEDKVNSMKSWLSKVGSPSSRIDRTNFSNEKTISKLEYSNFSIRY [ACYP2] | -0.285 | -1.11 | 0.215 | 53.7 °C | 53.4 °C | -0.0326 |
| MNIRNARPEDLMNMQHCNLLCLPENYQMKYYFYHGLSWPQLSYIAEDENGKIVGYVLAKMEEDPDDVPHGHITSLAVKRSHRRLGLAQKLMDQASRAMIENFNAKYVSLHVRKSNRAALHLYSNTLNFQISEVEPKYYADGEDAYAMKRDLTQMADELRRHLELKEKGRHVVLGAIENKVESKGNSPPSSGEACREEKGLAAEDSGGDSKDLSEVSETTESTDVKDSSEASDSAS [NAA10] | -0.13 | -1.02 | 0.263 | 53.4 °C | 53.1 °C | -0.0427 |
| MKPDETPMFDPSLLKEVDWSQNTATFSPAISPTHPGEGLVLRPLCTADLNRGFFKVLGQLTETGVVSPEQFMKSFEHMKKSGDYYVTVVEDVTLGQIVATATLIIEHKFIHSCAKRGRVEDVVVSDECRGKQLGKLLLSTLTLLSKKLNCYKITLECLPQNVGFYKKFGYTVSEENYMCRRFLK [GNPNAT1] | -0.0383 | -1.14 | 0.222 | 56.2 °C | 57.5 °C | -0.0779 |
| MFRGLSSWLGLQQPVAGGGQPNGDAPPEQPSETVAESAEEELQQAGDQELLHQAKDFGNYLFNFASAATKKITESVAETAQTIKKSVEEGKIDGIIDKTIIGDFQKEQKKFVEEQHTKKSEAAVPPWVDTNDEETIQQQILALSADKRNFLRDPPAGVQFNFDFDQMYPVALVMLQEDELLSKMRFALVPKLVKEEVFWRNYFYRVSLIKQSAQLTALAAQQQAAGKEEKSNGREQDLPLAEAVRPKTPPVVIKSQLKTQEDEEEISTSPGVSEFVSDAFDACNLNQEDLRKEMEQLVLDKKQEETAVLEEDSADWEKELQQELQEYEVVTESEKRDENWDKEIEKMLQEEN [SYAP1] | -0.579 | -1.49 | 0.391 | 53.2 °C | 53.5 °C | 0.264 |
| LSM14A | -0.955 | -1.78 | 0.131 | 51.8 °C | 51.6 °C | -0.186 |
| MVRPVRHKKPVNYSQFDHSDSDDDFVSATVPLNKKSRTAPKELKQDKPKPNLNNLRKEEIPVQEKTPKKRLPEGTFSIPASAVPCTKMALDDKLYQRDLEVALALSVKELPTVTTNVQNSQDKSIEKHGSSKIETMNKSPHISNCSVASDYLDLDKITVEDDVGGVQGKRKAASKAAAQQRKILLEGSDGDSANDTEPDFAPGEDSEDDSDFCESEDNDEDFSMRKSKVKEIKKKEVKVKSPVEKKEKKSKSKCNALVTSVDSAPAAVKSESQSLPKKVSLSSDTTRKPLEIRSPSAESKKPKWVPPAASGGSRSSSSPLVVVSVKSPNQSLRLGLSRLARVKPLHPNATST [RAD51AP1] | 1.26 | 7.25 | 0.0638 | 53.8 °C | 58 °C | 0.203 |
